How the values were obtained:
GST-TDP-43 (7-414) [1] = molecular target: T1, GST-TDP-43 (7-414) (Homo sapiens, UniProt Q13148 SEQ:7-414); assay: competition; up to 50x excess did not significantly compete; details: tags: N-terminal GST
GST-TDP-43 (7-166) = GST-TDP-43 (7-166) (Homo sapiens, UniProt Q13148 SEQ:7-166); assay: EMSA; only first RNP-1 retained; bound, affinity higher when both RNP1 and RNP2 present; details: tags: N-terminal GST; label: 32P
GST-TDP-43 (7-414) [2] = molecular target: T1, GST-TDP-43 (7-414); assay: EMSA; 50 mM KCl, 5 mM MgCl2, room temperature; competed by 5-50x unlabeled WT; details: tags: N-terminal GST; label: 32P
GST-TDP-43 (7-198) = GST-TDP-43 (7-198) (Homo sapiens, UniProt Q13148 SEQ:7-198); assay: EMSA; part of RNP domain deleted; still bound; details: tags: N-terminal GST; label: 32P
Chain of GST-TDP-43 (7-198) (Q13148 7-198): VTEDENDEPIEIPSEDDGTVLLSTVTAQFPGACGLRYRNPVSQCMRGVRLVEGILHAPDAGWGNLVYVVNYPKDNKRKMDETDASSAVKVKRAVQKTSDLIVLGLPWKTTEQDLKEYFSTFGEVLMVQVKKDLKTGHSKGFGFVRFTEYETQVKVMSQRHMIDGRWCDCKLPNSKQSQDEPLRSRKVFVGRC

GST-TDP-43 (7-333) = GST-TDP-43 (7-333) (Homo sapiens, UniProt Q13148 SEQ:7-333); assay: EMSA; glycine-rich domain truncation; bound like wild type; details: tags: N-terminal GST; label: 32P
Chain of GST-TDP-43 (7-333) (Q13148 7-333): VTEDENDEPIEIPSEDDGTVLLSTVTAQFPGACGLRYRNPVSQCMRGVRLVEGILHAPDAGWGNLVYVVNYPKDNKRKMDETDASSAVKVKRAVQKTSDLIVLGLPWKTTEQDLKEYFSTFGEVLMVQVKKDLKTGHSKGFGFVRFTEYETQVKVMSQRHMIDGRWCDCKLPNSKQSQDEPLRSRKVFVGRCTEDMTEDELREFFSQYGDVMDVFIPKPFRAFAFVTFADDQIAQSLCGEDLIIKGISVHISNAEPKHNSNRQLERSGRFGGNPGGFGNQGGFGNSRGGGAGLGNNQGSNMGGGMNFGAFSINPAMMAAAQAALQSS

[3] = molecular target: T2, TDP-43 full length (thrombin-cleaved) (Homo sapiens, UniProt Q13148 SEQ:1-414); assay: UV crosslinking, 43 and 86 kDa species, 160 or 800 ng protein; details: tags: GST removed by thrombin; label: 32P
T2 sequence (Q13148 whole entry, the tested form may be a part): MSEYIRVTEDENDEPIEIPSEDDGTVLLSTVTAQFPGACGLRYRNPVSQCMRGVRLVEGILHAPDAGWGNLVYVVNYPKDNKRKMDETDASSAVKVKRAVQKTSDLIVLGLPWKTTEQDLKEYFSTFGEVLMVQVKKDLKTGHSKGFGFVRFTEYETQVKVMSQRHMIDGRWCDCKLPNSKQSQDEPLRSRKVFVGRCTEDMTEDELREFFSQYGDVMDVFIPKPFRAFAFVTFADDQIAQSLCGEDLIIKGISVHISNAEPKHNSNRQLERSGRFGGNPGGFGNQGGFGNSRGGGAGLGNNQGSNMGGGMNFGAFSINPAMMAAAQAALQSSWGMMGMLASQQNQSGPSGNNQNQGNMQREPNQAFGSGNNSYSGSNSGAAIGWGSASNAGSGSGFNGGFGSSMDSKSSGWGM

GST-TDP-43 (7-240) = GST-TDP-43 (7-240) (Homo sapiens, UniProt Q13148 SEQ:7-240); assay: EMSA; glycine-rich domain deleted; bound like wild type; details: tags: N-terminal GST; label: 32P
Chain of GST-TDP-43 (7-240) (Q13148 7-240): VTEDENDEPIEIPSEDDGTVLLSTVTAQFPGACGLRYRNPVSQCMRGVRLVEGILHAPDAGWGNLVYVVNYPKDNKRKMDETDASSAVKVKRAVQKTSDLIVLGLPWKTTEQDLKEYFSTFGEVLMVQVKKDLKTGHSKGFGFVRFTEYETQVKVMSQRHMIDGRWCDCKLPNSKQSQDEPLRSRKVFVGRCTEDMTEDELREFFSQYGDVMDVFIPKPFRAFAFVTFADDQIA

[4] = molecular target: T2, TDP-43 full length (thrombin-cleaved); assay: competition; 50x excess did not compete UV crosslinking; details: tags: GST removed by thrombin
GST-TDP-43 (7-414) [5] = molecular target: T1, GST-TDP-43 (7-414); assay: competition; up to 50x excess did not compete; details: tags: N-terminal GST
GST-TDP-43 (7-414) [6] = molecular target: T1, GST-TDP-43 (7-414); assay: competition; up to 50x excess did not significantly compete; listed as -46/-13 in Example 8; details: tags: N-terminal GST
[7] = molecular target: T2, TDP-43 full length (thrombin-cleaved); assay: UV crosslinking; details: tags: GST removed by thrombin

T1 sequence (Q13148 7-414): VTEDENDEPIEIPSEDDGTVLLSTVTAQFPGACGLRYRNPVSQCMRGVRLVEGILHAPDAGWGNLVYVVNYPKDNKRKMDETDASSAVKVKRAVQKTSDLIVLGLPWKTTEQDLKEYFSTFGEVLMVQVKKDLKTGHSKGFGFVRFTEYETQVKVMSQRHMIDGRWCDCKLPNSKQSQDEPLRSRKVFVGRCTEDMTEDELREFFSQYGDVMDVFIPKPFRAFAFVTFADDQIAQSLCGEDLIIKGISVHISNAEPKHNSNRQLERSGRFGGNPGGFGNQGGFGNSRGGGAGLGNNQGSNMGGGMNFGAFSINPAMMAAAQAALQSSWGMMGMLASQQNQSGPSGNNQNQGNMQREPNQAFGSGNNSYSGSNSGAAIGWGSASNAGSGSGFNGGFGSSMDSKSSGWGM
Chain of GST-TDP-43 (7-166) (Q13148 7-166): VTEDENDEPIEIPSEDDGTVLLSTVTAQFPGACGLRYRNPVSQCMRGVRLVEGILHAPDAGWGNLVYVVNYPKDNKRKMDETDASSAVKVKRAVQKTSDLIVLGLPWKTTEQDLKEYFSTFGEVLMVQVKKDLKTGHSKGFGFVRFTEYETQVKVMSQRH

B1: HIV-1 LTR -45/+1 (dsDNA)
DNA 1: GCGTGCCTCAGATGCTGCATATAAGCAGCAGCTGCTTTTTGCCTGTACT
DNA 2: AGTACAGGCAAAAAGCAGCTGCTGCTTATATGCAGCATCTGAGGCACGC
binding result (GST-TDP-43 (7-414) [1]): no binding

B2: HIV-1 LTR -18/+28 (TAR DNA) WT (dsDNA)
DNA 1: CTGCTTTTTGCCTGTACTGGGTCTCTCTGGTTAGACCAGATCTGAG
DNA 2: CTCAGATCTGGTCTAACCAGAGAGACCCAGTACAGGCAAAAAGCAG
binding result (GST-TDP-43 (7-166)): binds
binding result (GST-TDP-43 (7-414) [2]): binds
binding result (GST-TDP-43 (7-198)): binds
binding result (GST-TDP-43 (7-333)): binds
binding result [3]: binds
binding result (GST-TDP-43 (7-240)): binds

B3: HIV-1 LTR -18/+28 delta1+delta2 (dsDNA)
DNA 1: CTGACGTACGTACGTACGTACATGCGTACGTTACGGACCATCT
DNA 2: AGATGGTCCGTAACGTACGCATGTACGTACGTACGTACGTCAG
binding result [4]: no binding
binding result (GST-TDP-43 (7-414) [5]): no binding

B4: HIV-1 LTR -45/-13 (dsDNA)
DNA 1: GCGTGCCTCAGATGCTGCATATAAGCAGCTGCTTT
DNA 2: AAAGCAGCTGCTTATATGCAGCATCTGAGGCACGC
binding result (GST-TDP-43 (7-414) [6]): no binding

B5: HIV-1 LTR -18/+28 delta2 (dsDNA)
DNA 1: CTGCTTTTTGCCTGTACGTACATGCGTACGTTAGACCAGATCT
DNA 2: AGATCTGGTCTAACGTACGCATGTACGTACAGGCAAAAAGCAG
binding result [7]: no binding
binding result (GST-TDP-43 (7-414) [5]): no binding

B6: AdMLP TATA (dsDNA)
DNA 1: AAGGGGGGCTATAAAAGGGGGTGGGGG
DNA 2: CCCCCACCCCCTTTTATAGCCCCCCTT
binding result (GST-TDP-43 (7-414) [5]): no binding

B7: HIV-1 LTR +10/+50 (dsDNA)
DNA 1: GGTTAGACCAGATCTGAGCCTGGGAGCTCTCTGGCTAACTAG
DNA 2: CTAGTTAGCCAGAGAGCTCCCAGGCTCAGATCTGGTCTAACC
binding result (GST-TDP-43 (7-414) [1]): no binding

B8: HIV-1 LTR -18/+28 delta1 (dsDNA)
DNA 1: CTGACGTACGTACGTACTGGGTCTCTCTGGTTAGACCAGATCT
DNA 2: AGATCTGGTCTAACCAGAGAGACCCAGTACGTACGTACGTCAG
binding result [7]: no binding
binding result (GST-TDP-43 (7-414) [5]): no binding

Reference: patent US5688511, “Cellular protein TDP-43 and regulation of HIV-1 gene expression” (Board of Regents, The University of Texas System)
